We go through 13 molecules from patent US9062124B2, “GIP-based mixed agonists for treatment of metabolic disorders and obesity” (priority 2008, dated 2015).

Type in all cases: cell-based
Assay [1] concerns the target T1, GLP-1 receptor (Homo sapiens, UniProt P43220).
T1 construct: expressed in transfected cells; host or cells: HEK293
Kind of assay: cAMP synthesis functional assay (firefly luciferase reporter in HEK293 cells), GLP-1 receptor. The following applies: for EC50: read-out: GLP-1 Receptor EC50.

Assay [2] addresses T2, GIP receptor (Homo sapiens, UniProt P48546).
T2 construct: expressed in transfected cells; host or cells: HEK293
T2 sequence (P48546 22-466): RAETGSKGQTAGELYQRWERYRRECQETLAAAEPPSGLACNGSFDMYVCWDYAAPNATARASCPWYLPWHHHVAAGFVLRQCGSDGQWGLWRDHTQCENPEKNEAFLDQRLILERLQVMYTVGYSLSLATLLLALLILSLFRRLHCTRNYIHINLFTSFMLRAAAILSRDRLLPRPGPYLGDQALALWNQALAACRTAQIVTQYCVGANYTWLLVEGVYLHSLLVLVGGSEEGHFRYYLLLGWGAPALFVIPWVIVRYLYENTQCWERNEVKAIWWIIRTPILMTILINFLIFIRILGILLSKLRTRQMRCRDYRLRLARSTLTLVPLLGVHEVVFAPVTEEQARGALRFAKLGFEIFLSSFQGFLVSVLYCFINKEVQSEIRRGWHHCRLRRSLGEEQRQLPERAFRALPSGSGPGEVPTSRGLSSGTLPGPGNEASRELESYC
Kind of assay: cAMP synthesis functional assay (firefly luciferase reporter in HEK293 cells), GIP receptor. The note with it: for EC50: read-out: GIP Receptor EC50.

For assay [3], the target named is T3, glucagon receptor (Homo sapiens, UniProt P47871).
T3 construct: expressed in transfected cells; host or cells: HEK293
T3 sequence (P47871 26-477): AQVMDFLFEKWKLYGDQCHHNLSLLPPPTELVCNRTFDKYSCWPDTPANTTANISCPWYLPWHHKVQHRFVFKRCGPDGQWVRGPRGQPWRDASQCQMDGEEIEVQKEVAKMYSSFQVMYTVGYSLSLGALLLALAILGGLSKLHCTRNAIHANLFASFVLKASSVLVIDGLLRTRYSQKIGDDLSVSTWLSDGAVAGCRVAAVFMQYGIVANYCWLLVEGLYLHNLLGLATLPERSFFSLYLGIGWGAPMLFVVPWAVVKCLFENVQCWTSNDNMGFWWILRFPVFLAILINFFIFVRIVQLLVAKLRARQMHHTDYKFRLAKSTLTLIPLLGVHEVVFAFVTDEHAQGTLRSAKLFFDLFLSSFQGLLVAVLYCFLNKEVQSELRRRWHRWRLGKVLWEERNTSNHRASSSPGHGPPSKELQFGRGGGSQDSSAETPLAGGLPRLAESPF
Kind of assay: cAMP synthesis functional assay (firefly luciferase reporter in HEK293 cells), glucagon receptor. The following applies: for EC50: read-out: Glucagon Receptor EC50.

The subject of assay [4] is glucagon receptor, GLP-1 receptor or GIP receptor. Kind of assay: Agonist profile across receptors assigned from the cAMP reporter assay data. The following applies: assigned from the in vitro EC50 data of Tables 1-4.
Setting [5] is: Table 1, relative to the native hormone of the indicated receptor.
Where [6] appears, read: Table 4, relative to the native hormone.
[7] abbreviates: cAMP luciferase reporter assay as in Example 16.
The mark [8] stands for this setting: relative to the standard (Std.) EC50 of the same run.

Read-outs that look alike come from different tables or passages of the source. Where a SMILES comes first, the peptide text is derived from it. Bridges are numbered along the chain shown (N, C = ends). Where no end group is shown, it is not given here. Side-chain parts run from the residue outwards. [ ]: non-standard residue; d: D form. Ac‑Cys(PEG 40 kDa) = Cys whose alpha-amino group is acetylated and whose side chain carries a 40 kDa PEG; PEG 40 kDa = PEG (40 kDa) covalently attached to Cys; C18 acyl = 18 carbon fatty acyl group; Nle = CCCC[C@H](N)C(=O)O; Aib = CC(C)(N)C(=O)O

T1 sequence (P43220 24-463, species assumed): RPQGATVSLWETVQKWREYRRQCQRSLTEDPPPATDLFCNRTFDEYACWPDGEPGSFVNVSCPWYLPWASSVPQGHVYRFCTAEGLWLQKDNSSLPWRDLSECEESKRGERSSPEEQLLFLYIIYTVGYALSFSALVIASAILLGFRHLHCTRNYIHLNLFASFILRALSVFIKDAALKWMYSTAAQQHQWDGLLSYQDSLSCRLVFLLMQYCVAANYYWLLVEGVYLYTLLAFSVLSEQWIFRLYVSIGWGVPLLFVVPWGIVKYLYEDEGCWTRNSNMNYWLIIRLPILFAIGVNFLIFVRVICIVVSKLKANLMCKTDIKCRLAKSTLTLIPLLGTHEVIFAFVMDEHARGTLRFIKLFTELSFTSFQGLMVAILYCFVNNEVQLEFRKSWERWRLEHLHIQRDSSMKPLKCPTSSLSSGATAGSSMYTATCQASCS

For `CC[C@H](C)[C@@H]1NC(=O)[C@@H](NC(=O)[C@H](CC(=O)O)NC(=O)[C@H](CC(C)C)NC(=O)[C@H](Cc2ccc(O)cc2)NC(=O)[C@H](CCCCN)NC(=O)[C@H](CO)NC(=O)[C@H](Cc2ccc(O)cc2)NC(=O)[C@H](CC(=O)O)NC(=O)[C@H](CO)NC(=O)[C@@H](NC(=O)[C@H](Cc2ccccc2)NC(=O)[C@@H](NC(=O)CNC(=O)[C@H](CCC(N)=O)NC(=O)[C@H](CO)NC(=O)[C@@H](N)Cc2ccc(O)cc2)[C@@H](C)O)[C@@H](C)O)CCC(=O)NCCCC[C@@H](C(=O)N[C@@H](CC(=O)O)C(=O)N[C@@H](Cc2ccccc2)C(=O)N[C@H](C(=O)N[C@@H](CC(N)=O)C(=O)N[C@@H](Cc2c[nH]c3ccccc23)C(=O)N[C@@H](CC(C)C)C(=O)N[C@@H](CC(C)C)C(=O)N[C@@H](C)C(=O)NCC(=O)NCC(=O)N2CCC[C@H]2C(=O)N[C@@H](CO)C(=O)N[C@@H](CO)C(=O)NCC(=O)N[C@@H](C)C(=O)N2CCC[C@H]2C(=O)N2CCC[C@H]2C(=O)N2CCC[C@H]2C(=O)N[C@@H](CO)C(N)=O)C(C)C)NC(=O)[C@H](CCC(N)=O)NC(=O)[C@H](Cc2c[nH]cn2)NC1=O` [mt-116] (H-YSQGTFTSDYSKYLDEIHQKDFVNWLLAGGPSSGAPPPS-NH2; lactam 16-20; N-terminus assumed), the “GLP-1 Receptor relative activity” value in assay [1] (setting [5]) was determined as 1.07%. The “GIP Receptor relative activity” value in assay [2] (setting [5]) came out at 7.62%. The “Glucagon Receptor relative activity” value in assay [3] (setting [5]) amounted to 18.68%. For the same molecule, the “receptor activity profile (glucagon / GLP-1 / GIP agonism)” value in assay [4] was “exemplary GIP/glucagon co-agonist peptides”.
Regarding `CC[C@H](C)[C@H](NC(=O)[C@H](CO)NC(=O)[C@H](Cc1ccc(O)cc1)NC(=O)[C@H](CC(=O)O)NC(=O)[C@H](CO)NC(=O)[C@@H](NC(=O)[C@H](Cc1ccccc1)NC(=O)[C@@H](NC(=O)CNC(=O)[C@H](CCC(N)=O)NC(=O)[C@H](CO)NC(=O)[C@@H](N)Cc1ccc(O)cc1)[C@@H](C)O)[C@@H](C)O)C(=O)N[C@@H](Cc1ccc(O)cc1)C(=O)N[C@@H](CC(C)C)C(=O)N[C@@H](CC(=O)O)C(=O)N[C@H]1CCC(=O)NCCCC[C@@H](C(=O)N[C@@H](CCC(=O)O)C(=O)N[C@@H](Cc2ccccc2)C(=O)N[C@H](C(=O)N[C@@H](CC(N)=O)C(=O)N[C@@H](Cc2c[nH]c3ccccc23)C(=O)N[C@@H](CC(C)C)C(=O)N[C@@H](CC(C)C)C(=O)N[C@@H](C)C(=O)NCC(=O)NCC(=O)N2CCC[C@H]2C(=O)N[C@@H](CO)C(=O)N[C@@H](CO)C(=O)NCC(=O)N[C@@H](C)C(=O)N2CCC[C@H]2C(=O)N2CCC[C@H]2C(=O)N2CCC[C@H]2C(=O)N[C@@H](CO)C(N)=O)C(C)C)NC(=O)[C@H](C)NC(=O)[C@H](C)NC(=O)[C@H](CCC(N)=O)NC1=O` [mt-140] (H-YSQGTFTSDYSIYLDEQAAKEFVNWLLAGGPSSGAPPPS-NH2; lactam 16-20; N-terminus assumed), in assay [1] (setting [5]), the “GLP-1 Receptor relative activity” value was 49.56%. Besides, in assay [2] (setting [5]), the “GIP Receptor relative activity” value amounted to 12.85%. Moreover, the “Glucagon Receptor relative activity” value in assay [3] (setting [5]) was 131.15%. In addition, in assay [4], the “receptor activity profile (glucagon / GLP-1 / GIP agonism)” value is listed as “exemplary GLP-1/GIP/glucagon triagonist peptides”.
“mt-172: glucagon analog peptide, C-terminal amide (Y[Aib]QGTFTSDYSIYLDEQAAKEFVC(PEG 40 kDa)WLLAG-NH2; lactam 16-20)”: the “receptor activity profile (glucagon / GLP-1 / GIP agonism)” value in assay [4] was “exemplary GLP-1/GIP/glucagon triagonist peptides”.
On to “mt-175: glucagon analog peptide, C-terminal amide (Y[Aib]QGTFTSDYSIYLDEQAAKEFVC(PEG 40 kDa)WLLAGGPSSGAPPPS-NH2; lactam 16-20)”, for which, in assay [4], the “receptor activity profile (glucagon / GLP-1 / GIP agonism)” value is “exemplary GLP-1/GIP/glucagon triagonist peptides”.
On to “mt-203: glucagon analog peptide, C-terminal amide (Y[Aib]QGTFTSDYSIYLDEQAAKEFVNWL[Nle]AGGPSSGAPPPSC(PEG 40 kDa)-NH2; lactam 16-20)”, for which the “GLP-1 Receptor relative activity” value in assay [1] (setting [5]) is given as 20.71%. The EC50 in assay [1] (Table 1) was 0.14 nM; in assay [2] (Table 1) it was 12.2 nM; in assay [3] (Table 1), 4.84 nM. Moreover, the “GIP Receptor relative activity” value in assay [2] (setting [5]) is 0.24%. Moreover, the “Glucagon Receptor relative activity” value in assay [3] (setting [5]) is on record as 1.38%.
Regarding “mt-205: glucagon analog peptide, C-terminal amide (Y[Aib]EGTFTSDYSIYLDEQAAKEFVNWLLAGRPSSGAPPPSC(PEG 40 kDa)-NH2; lactam 16-20)”, the “GLP-1 Receptor relative activity” value in assay [1] (setting [5]) was determined as 14.22%. Also, the EC50 in assay [1] (Table 1) is 0.204 nM; in assay [2] (Table 1), 1.66 nM; in assay [3] (Table 1), 672 nM. In assay [2] (setting [5]), the “GIP Receptor relative activity” value was 1.74%. Further, in assay [3] (setting [5]), the “Glucagon Receptor relative activity” value is given as 0.01%.
On to “mt-225: pegylated monomer with lactam bridge between Glu16 and Lys20, PEG attached via dipeptide spacer (Y[Aib]QGTFTSDYSIYLDEQAAKEFVNWLLAGGPSSGAPPPSK([Ala-Ac‑Cys(PEG 40 kDa)])-NH2; lactam 16-20)”, for which, in assay [1] (setting [6]), the “GLP-1 Receptor relative activity” value worked out at 29.59%. The “GIP Receptor relative activity” value in assay [2] (setting [6]) was 0.90%. Further, the “Glucagon Receptor relative activity” value in assay [3] (setting [6]) worked out at 1.99%.
Take “mt-227: pegylated monomer with lactam bridge between Glu16 and Lys20, PEG attached via dipeptide spacer (Y[Aib]QGTFTSDYSIYLDEQAAKEFVNWLLAGGPSSGAPPPSK([Arg-Ac‑Cys(PEG 40 kDa)])-NH2; lactam 16-20)”: the “GLP-1 Receptor relative activity” value in assay [1] (setting [6]) is recorded as 36.25%. Also, in assay [2] (setting [6]), the “GIP Receptor relative activity” value was 1.29%. In addition, the “Glucagon Receptor relative activity” value in assay [3] (setting [6]) is listed as 1.27%.
Turning to “mt-248: sequence of mt-170 with an AIB at position 16 in lieu of the lactam (Y[Aib]QGTFTSDYSIYLD[Aib]QAAKEFVNWLLAGGPSSGAPPPSC(PEG 40 kDa)-NH2)”, the “receptor activity profile (glucagon / GLP-1 / GIP agonism)” value in assay [4] is “exhibited activities of glucagon/GLP-1/GIP triagonists”.
On to “mt-281 (Y[Aib]QGTFTSDYSIYLDKQAA[Aib]EFVC(PEG 40 kDa)WLLAG-NH2)”, for which the EC50 is 0.216 nM in assay [1] (setting [7]) and 0.4 nM in assay [2] (setting [7]). Also, the “GLP-1 Receptor relative activity” value in assay [1] (setting [8]) is given as 5.13%. Besides, the “GIP Receptor relative activity” value in assay [2] (setting [8]) is on record as 6.68%. Besides, in assay [3] (setting [8]), the “Glucagon Receptor relative activity” value is given as 16.65%.
As to “mt-310: acylated version of mt-274: C-terminal Lys with C18 fatty acyl group, 40 kDa PEG on Cys at position 24 (Y[Aib]EGTFTSDYSIYLDKQAA[Aib]EFVC(PEG 40 kDa)WLLAGGPSSGAPPPSK(C18 acyl)-NH2)”, the “receptor activity profile (glucagon / GLP-1 / GIP agonism)” value in assay [4] is “exhibited activity at the GIP, GLP-1, and glucagon receptors”.
Take “mt-376: acylated PEG-linked dimer, acylation at position 40 of each monomer (YXEGTFTSDYSIYLDKQAAXEFVNWLLAGGPSSGAPPPSKC; PEG-linked dimer, acylated at position 40; Mt-376; Homodimer; Xaa is Aib; 14 Carbon fatty acyl group covelently bound to Lysine; C-terminal amidation; Cys residue covalently attached to 20 kDa PEG which is in turn covalently attached to a Cys residue of a second peptide having the same structure)”: in assay [1] (setting [6]), the “GLP-1 Receptor relative activity” value amounted to 126.82%. The “GIP Receptor relative activity” value in assay [2] (setting [6]) is reported as 62.63%. For the same molecule, the “Glucagon Receptor relative activity” value in assay [3] (setting [6]) is on record as 0.57%. The EC50 in assay [3] (Table 4) was 13.5 nM.
The matching figures for “mt-377: acylated PEG-linked dimer, acylation at position 40 of each monomer (YXEGTFTSDYSIYLDKQAAXEFVNWLLAGGPSSGAPPPSKC; PEG-linked dimer, acylated at position 40; Mt-377; homodimer; Xaa is Aib; 14 Carbon fatty acyl group covalently bound to Lysine; PEG (5kDa) covalently bound to Cysteine; C-terminal amidation; Cys residue covalently attached to 5 kDa PEG which is in turn covalently attached to a Cys residue of a second peptide having the same structure)”: 177.88%, 138.11%, 1.98% and 3.9 nM.
